Results as given in US20200209227A1 (published 2020).

Target: T1, Rh5 (UniProt Q8IFM5 25-526)
T1 sequence: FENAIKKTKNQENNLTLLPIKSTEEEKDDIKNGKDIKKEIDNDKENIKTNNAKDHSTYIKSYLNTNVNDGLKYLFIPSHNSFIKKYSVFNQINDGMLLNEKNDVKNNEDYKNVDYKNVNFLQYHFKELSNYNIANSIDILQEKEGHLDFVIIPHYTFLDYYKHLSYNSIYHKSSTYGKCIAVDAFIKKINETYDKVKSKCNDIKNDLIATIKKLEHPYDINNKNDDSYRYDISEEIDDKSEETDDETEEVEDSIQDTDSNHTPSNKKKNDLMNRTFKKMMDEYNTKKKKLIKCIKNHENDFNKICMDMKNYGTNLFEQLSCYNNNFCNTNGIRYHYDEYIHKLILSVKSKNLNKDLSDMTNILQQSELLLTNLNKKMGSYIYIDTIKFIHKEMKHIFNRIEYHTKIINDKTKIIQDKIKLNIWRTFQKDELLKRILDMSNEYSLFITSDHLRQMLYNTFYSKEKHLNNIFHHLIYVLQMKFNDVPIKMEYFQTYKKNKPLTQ
Experiment: BSI, free solution, label-free

B1: Basigin (receptor)
chain: AAGTVFTTVEDLGSKILLTCSLNDSATEVTGHRWLKGGVVLKEDALPGQKTEFKVDSDDQWGEYSCVFLPEPMGTANIQLHGPPRVKAVKSSEHINEGETAMLVCKSESVPPVTDWAWYKITDSEDKALMNGSESRFFVSSSQGRSELHIENLNMEADPGQYRCNGTSSKGSDQAIITLRVRSH
notes: If it applies, basigin was whole, on human erythrocytes
- Kd: 1.08 µM
